The values below come from paper PMC5292684, “High affinity anchoring of the decoration protein pb10 onto the bacteriophage T5 capsid” (Scientific Reports, 2017).

B1: major capsid protein pb8 of bacteriophage T5 (natural protein, UniProt Q6QGD8 160-458, looked up)
chain: AVNQSSSVEVSSESYETIFSQRIIRDLQKELVVGALFEELPMSSKILTMLVEPDAGKATWVAASTYGTDTTTGEEVKGALKEIHFSTYKLAAKSFITDETEEDAIFSLLPLLRKRLIEAHAVSIEEAFMTGDGSGKPKGLLTLASEDSAKVVTEAKADGSVLVTAKTISKLRRKLGRHGLKLSKLVLIVSMDAYYDLLEDEEWQDVAQVGNDSVKLQGQVGRIYGLPVVVSEYFPAKANSAEFAVIVYKDNFVMPRQRAVTVERERQAGKQRDAYYVTQRVNLQRYFANGVVSGTYAAS
notes: major capsid protein (head protein) pb8 of bacteriophage T5, after its N-terminal scaffolding domain is cleaved off by the protease pb11; as a hexamer of the expanded capsid; Hexamer within the capsid lattice; the deposited model 5TJT is a homology model flexibly fitted into the cryo-EM map; also called head protein

Data set [1] deals with the molecule itself. As to the kind of experiment: cryo-EM structure; icosahedral reconstructions of empty expanded capsids with pb10 (9 Å) and without pb10 (8 Å); pb8 homology model fitted into the hexamer density.
In data set [2] the target is bacteriophage T5 empty expanded capsid (without pb10) (bacteriophage T5). As to the kind of experiment: SPR; as a3 but PBS containing 500 mM NaCl; koff set at 2 x 10^-4 s^-1; single experiment. (Surface plasmon resonance follows binding to a sensor surface in real time, without labels.)
Target sequence in this assay (Q6QGD5 11-403 limits assumed): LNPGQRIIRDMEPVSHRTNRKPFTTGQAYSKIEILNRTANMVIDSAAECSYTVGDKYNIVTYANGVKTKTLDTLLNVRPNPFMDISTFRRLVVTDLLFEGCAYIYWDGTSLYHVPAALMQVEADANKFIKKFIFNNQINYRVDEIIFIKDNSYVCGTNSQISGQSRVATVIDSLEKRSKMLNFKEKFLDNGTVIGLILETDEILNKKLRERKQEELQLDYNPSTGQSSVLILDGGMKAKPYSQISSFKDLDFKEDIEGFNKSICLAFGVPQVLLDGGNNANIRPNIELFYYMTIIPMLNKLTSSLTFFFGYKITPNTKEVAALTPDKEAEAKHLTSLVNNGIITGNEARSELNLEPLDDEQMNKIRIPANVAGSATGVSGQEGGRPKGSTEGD
Data set [3] has the same target. As to the kind of experiment: SPR; as a3 but PBS containing 750 mM NaCl; koff set at 2 x 10^-4 s^-1; single experiment.
Target sequence in this assay (Q6QGD5 11-403 limits assumed): as above
Data set [4] addresses B1. As to the kind of experiment: cryo-EM structure; icosahedral reconstructions of empty expanded capsids with pb10 (9 Å) and without pb10 (8 Å); pb8 homology model fitted into the hexamer density. The following applies: both partners purified.
Data set [5] deals with bacteriophage T5 empty expanded capsid (without pb10) (bacteriophage T5). As to the kind of experiment: SPR; T200, 25 °C, PBS (137 mM NaCl) with 1 mg/mL BSA; expanded capsids captured on a CM5 chip through immobilised rabbit anti-capsid antibodies; pb10 variants 0.09 to 40 nM injected at 50 uL/min; koff set at 2 x 10^-4 s^-1 for all proteins; global fit to a Langmuir mass transport-limited model.

Data set [6] has the same target. As to the kind of experiment: SPR; as a3 but PBS containing 300 mM NaCl; koff set at 2 x 10^-4 s^-1; single experiment.
Target sequence in this assay (Q6QGD5 11-403 limits assumed): as above

For the molecule B1, the “stoichiometry N” value in data set [1] was 6.

B2: decoration protein pb10 of bacteriophage T5, full-length, fused to a C-terminal histidine tag (natural protein, UniProt Q6QGD6 1-164, looked up)
chain: MIDYSGLRTIFGEKLPESHIFFATVAAHKYVPSYAFLRRELGLSSAHTNRKVWKKFVEAYGKAIPPAPPAPPLTLSKDLTASMSVEEGAALTLSVTATGGTGPYTYAWTKDGSPIPDASGATYTKPTAAAEDAGSYKVTVTDSKQVSKDSTTCAVTVNPTVPGG
notes: decoration protein pb10 of bacteriophage T5, 164 amino acids, GenBank AAU05286; Monomer by SEC-MALLS (17 kDa); 18.3 kDa with the His tag; also called pb10-His; His-tagged pb10; source: pET28b expression vector, purified (expression and purification detailed in SI); not shown: His-Tag, C-terminal, kept
In data set [2], B2 had a Kd of 4.2 pM, an off-rate constant (koff) of 0.0002 s⁻¹ and a kon of 4.76e+07 M⁻¹ s⁻¹. In data set [3], this molecule yielded a Kd of 22.2 pM, a koff of 0.0002 s⁻¹ and a kon of 9.01e+06 M⁻¹ s⁻¹. The binding result in data set [4] is recorded as “binds”. In data set [5], the Kd is 1.11 pM, the dissociation rate constant (koff) was 0.0002 s⁻¹, the association rate constant (kon) was 1.8e+08 M⁻¹ s⁻¹ and the maximum mass increase of the capsid on decoration was 8%. Also, the signal decrease over 700 s of dissociation in data set [5] amounted to 7%. In data set [6], this molecule had a Kd of 1.8 pM, a koff of 0.0002 s⁻¹ and a kon of 1.11e+08 M⁻¹ s⁻¹.

B3: pb10 R38E (natural protein)
chain: MIDYSGLRTIFGEKLPESHIFFATVAAHKYVPSYAFLERELGLSSAHTNRKVWKKFVEAYGKAIPPAPPAPPLTLSKDLTASMSVEEGAALTLSVTATGGTGPYTYAWTKDGSPIPDASGATYTKPTAAAEDAGSYKVTVTDSKQVSKDSTTCAVTVNPTVPGG
B3: in data set [5], the Kd turned out to be 2.36 pM, the koff was 0.0002 s⁻¹ and the association rate constant (kon) worked out at 8.47e+07 M⁻¹ s⁻¹.

B4: pb10 Y34A-R38E (natural protein)
chain: MIDYSGLRTIFGEKLPESHIFFATVAAHKYVPSAAFLERELGLSSAHTNRKVWKKFVEAYGKAIPPAPPAPPLTLSKDLTASMSVEEGAALTLSVTATGGTGPYTYAWTKDGSPIPDASGATYTKPTAAAEDAGSYKVTVTDSKQVSKDSTTCAVTVNPTVPGG
As to B4, in data set [5], the Kd was determined as 480 pM, the koff was 0.0002 s⁻¹ and the kon came to 417000 M⁻¹ s⁻¹.

B5: pb10 F36A-R38E (natural protein)
chain: MIDYSGLRTIFGEKLPESHIFFATVAAHKYVPSYAALERELGLSSAHTNRKVWKKFVEAYGKAIPPAPPAPPLTLSKDLTASMSVEEGAALTLSVTATGGTGPYTYAWTKDGSPIPDASGATYTKPTAAAEDAGSYKVTVTDSKQVSKDSTTCAVTVNPTVPGG
B5: in data set [5], the Kd is 10.3 pM, the koff came to 0.0002 s⁻¹ and the kon is 1.95e+07 M⁻¹ s⁻¹.

B6: pb10 F36A (natural protein)
chain: MIDYSGLRTIFGEKLPESHIFFATVAAHKYVPSYAALRRELGLSSAHTNRKVWKKFVEAYGKAIPPAPPAPPLTLSKDLTASMSVEEGAALTLSVTATGGTGPYTYAWTKDGSPIPDASGATYTKPTAAAEDAGSYKVTVTDSKQVSKDSTTCAVTVNPTVPGG
In data set [5], B6 came in with a dissociation constant Kd of 0.23 pM, a koff of 0.0002 s⁻¹ and a kon of 8.66e+08 M⁻¹ s⁻¹.

B7: pb10 F36A-R38A (natural protein)
chain: MIDYSGLRTIFGEKLPESHIFFATVAAHKYVPSYAALARELGLSSAHTNRKVWKKFVEAYGKAIPPAPPAPPLTLSKDLTASMSVEEGAALTLSVTATGGTGPYTYAWTKDGSPIPDASGATYTKPTAAAEDAGSYKVTVTDSKQVSKDSTTCAVTVNPTVPGG
In data set [5], B7 registered a Kd of 3.27 pM, a koff of 0.0002 s⁻¹ and a kon of 6.11e+07 M⁻¹ s⁻¹.

B8: pb10 R38A (natural protein)
chain: MIDYSGLRTIFGEKLPESHIFFATVAAHKYVPSYAFLARELGLSSAHTNRKVWKKFVEAYGKAIPPAPPAPPLTLSKDLTASMSVEEGAALTLSVTATGGTGPYTYAWTKDGSPIPDASGATYTKPTAAAEDAGSYKVTVTDSKQVSKDSTTCAVTVNPTVPGG
In data set [5], B8 displayed a Kd of 1.67 pM, a koff of 0.0002 s⁻¹ and an on-rate (kon) of 1.2e+08 M⁻¹ s⁻¹.

B9: pb10 N-terminal domain (NTD), residues 1 to 77 (domain or fragment)
chain: MIDYSGLRTIFGEKLPESHIFFATVAAHKYVPSYAFLRRELGLSSAHTNRKVWKKFVEAYGKAIPPAPPAPPLTLSK
For the molecule B9, in data set [5], the Kd turned out to be 0.55 pM, the koff was 0.0002 s⁻¹ and the association rate constant (kon) amounted to 3.62e+08 M⁻¹ s⁻¹.

The stoichiometry N is the number of molecules, sites or subunits per partner or assembly. What is called Kd is a measure of binding affinity in units of concentration. A low value points to tighter binding. Broadly, the koff is the rate constant with which the complex falls apart. Read a low koff as slow dissociation. The term kon denotes the second-order rate constant of association. A lower kon goes with slower complex formation.
